# Source: PMC12237909, “Wheat endosperm-specific transcription factor TaDOF6 enhances grain development by regulating TaSWEET13h expression and facilitating sugar and gibberellin transport”
# T1: TaDOF6 (Triticum aestivum (wheat; cultivar of …, UniProt A0A3B6LII6 1-338)
# T1 sequence: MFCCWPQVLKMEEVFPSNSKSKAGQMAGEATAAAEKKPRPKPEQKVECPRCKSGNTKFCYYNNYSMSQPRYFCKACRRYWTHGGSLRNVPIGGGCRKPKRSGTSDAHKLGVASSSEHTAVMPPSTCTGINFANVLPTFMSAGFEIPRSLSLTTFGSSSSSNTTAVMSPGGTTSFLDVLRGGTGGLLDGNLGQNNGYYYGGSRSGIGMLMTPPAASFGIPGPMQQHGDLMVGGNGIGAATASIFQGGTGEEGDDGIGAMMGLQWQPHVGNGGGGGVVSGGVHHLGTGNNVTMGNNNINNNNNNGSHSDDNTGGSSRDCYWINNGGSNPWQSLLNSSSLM
# B1: TaSWEET13h promoter P-box probe (dsDNA)
# DNA 1: ATTAAAGCTAAAGTGTACACCAAAGCGACAACTTTTG
# DNA 2: CAAAAGTTGTCGCTTTGGTGTACACTTTAGCTTTAAT
# Target: T1, TaDOF6
# Assay: EMSA; EMSA buffer, salt, pH and temperature not stated (gel as in Zhang et al., 2016); probes annealed 95 C to 25 C
# Details: protein: recombinant; tags: His (pETMALc-H vector); label: biotin (printed at both ends of each strand); blunt
binder,measurement,value
B1,binding result,binds
